# Experimental data as given in publication PMC8174753.
# Test system: T1, GtrR (Burkholderia cenocepacia H111), ORF:a5d7dc98
# T1 sequence: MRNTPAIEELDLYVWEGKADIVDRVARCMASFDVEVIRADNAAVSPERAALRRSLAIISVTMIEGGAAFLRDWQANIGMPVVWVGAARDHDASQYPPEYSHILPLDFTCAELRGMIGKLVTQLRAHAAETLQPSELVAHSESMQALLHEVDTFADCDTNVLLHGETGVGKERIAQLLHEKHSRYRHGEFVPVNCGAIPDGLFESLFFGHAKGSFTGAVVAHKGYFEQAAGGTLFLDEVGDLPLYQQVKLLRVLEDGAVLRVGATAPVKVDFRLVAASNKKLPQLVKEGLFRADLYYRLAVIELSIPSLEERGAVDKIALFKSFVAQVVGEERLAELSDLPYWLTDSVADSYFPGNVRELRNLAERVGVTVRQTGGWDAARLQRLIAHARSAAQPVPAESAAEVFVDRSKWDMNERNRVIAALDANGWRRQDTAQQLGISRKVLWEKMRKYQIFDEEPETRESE
# Test: EMSA
# Details: Binding reactions per manufacturer's instructions (Thermo), 3'-biotin probes, 5% polyacrylamide gel; buffer, salt, pH and temperature not stated
sequence,measurement,value
GGCTTGCGTATTTCTGGCCCGGTTGATTGATTTTGGTTGTGATTTTTTGCCACGCAACGTCGAAAACGCATCGCGCGGCCCCAGTTCGCTCTCGTATCGAAAATGAGATTTTCGATTTCGCAGACAATTGTTAAATGCGGAACCGATATCCGTCAACCTGAGAAAACGGGCGGCTTGCGTAAAATCGAAATCGCGGGTACCGGTTTAAGGTTGCAATGCAGCA (double strand) [Bcal3178 promoter 223 bp],binding,no binding
